Data from patent US20140363428A1.

Assays:
[1] = biological target: human IgE (human); assay: SPR Biacore T200, 37 C; pH 5.8, […] Ca
[2] = biological target: human IgE (human); assay: SPR Biacore T200, 37 C; pH 7.4, […] Ca
[3] = biological target: human IgE (human); assay: SPR Biacore T200, 37 C; pH 5.8, 3 microM Ca
[4] = biological target: human IgE (human); assay: SPR Biacore T200, 37 C; ratio of KD, pH dependency
[5] = biological target: human IgE (human); assay: SPR Biacore T200, 37 C; ratio of KD, pH/Ca dependency

Chain of human IgE (human) (heavy, as listed by the source, chain 1 of 2, other chains not shown): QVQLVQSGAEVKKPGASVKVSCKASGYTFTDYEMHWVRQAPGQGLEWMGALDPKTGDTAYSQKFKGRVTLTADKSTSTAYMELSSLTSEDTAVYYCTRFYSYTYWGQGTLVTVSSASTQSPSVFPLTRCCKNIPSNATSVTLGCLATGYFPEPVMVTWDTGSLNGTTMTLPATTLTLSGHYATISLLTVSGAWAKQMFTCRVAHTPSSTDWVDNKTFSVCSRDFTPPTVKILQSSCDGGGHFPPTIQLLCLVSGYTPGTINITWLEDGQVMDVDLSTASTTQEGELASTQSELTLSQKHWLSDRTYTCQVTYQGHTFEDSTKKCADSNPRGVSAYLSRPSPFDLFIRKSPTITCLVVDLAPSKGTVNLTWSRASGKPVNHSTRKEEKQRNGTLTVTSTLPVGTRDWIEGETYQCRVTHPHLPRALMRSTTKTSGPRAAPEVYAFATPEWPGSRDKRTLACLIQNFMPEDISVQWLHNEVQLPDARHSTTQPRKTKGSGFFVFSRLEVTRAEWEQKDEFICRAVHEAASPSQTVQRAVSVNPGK

Kd [1]: 9.9 nM
koff [1]: 0.024 s⁻¹
kon [1]: 2.4e+06 M⁻¹ s⁻¹
Kd [2]: 4.4 nM
koff [2]: 0.011 s⁻¹
kon [2]: 2.5e+06 M⁻¹ s⁻¹
Kd [3]: 13 nM
koff [3]: 0.017 s⁻¹
kon [3]: 1.4e+06 M⁻¹ s⁻¹
KD (pH 5.8, 1.2 mM Ca)/KD (pH 7.4, 1.2 mM Ca) [4]: 2.3
KD (pH 5.8, 3 microM Ca)/KD (pH 7.4, 1.2 mM Ca) [5]: 2.9
Substance: Xolair (omalizumab; Novartis) (antibody)
